# Reference: patent US20170107293A1 (BIOINVENT INTERNATIONAL, published 2017)
# T1: Soluble hFcγRIIB (R & D Systems) (human, UniProt P31994 46-217)
# T1 construct: Bought reagent; also called hFcγRIIB fusion protein
# T1 sequence (looked up): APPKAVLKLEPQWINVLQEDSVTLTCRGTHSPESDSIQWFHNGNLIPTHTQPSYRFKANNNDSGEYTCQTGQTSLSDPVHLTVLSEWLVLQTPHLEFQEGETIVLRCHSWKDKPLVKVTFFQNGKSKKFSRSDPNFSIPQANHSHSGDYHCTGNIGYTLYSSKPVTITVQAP
# T2: human FcγRIIA on cells (human, UniProt P12318 34-317)
# T2 construct: whole, on cells; also called hFcγRIIA; FcγRIIA^+ve CHO
# T2 sequence (looked up): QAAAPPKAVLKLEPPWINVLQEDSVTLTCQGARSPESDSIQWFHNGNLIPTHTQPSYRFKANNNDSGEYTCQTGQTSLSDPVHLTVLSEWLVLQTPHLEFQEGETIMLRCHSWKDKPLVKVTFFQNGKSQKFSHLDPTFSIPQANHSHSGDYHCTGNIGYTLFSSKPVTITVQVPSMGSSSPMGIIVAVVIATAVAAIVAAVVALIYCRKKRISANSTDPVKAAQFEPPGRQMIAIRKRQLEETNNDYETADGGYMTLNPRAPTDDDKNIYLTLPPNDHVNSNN
# T3: mouse FcγRIIB (mouse, UniProt P08101 30-330)
# T3 construct: whole, on cells; also called mFcγRII; FcγRIIB in other species
# T3 sequence (looked up): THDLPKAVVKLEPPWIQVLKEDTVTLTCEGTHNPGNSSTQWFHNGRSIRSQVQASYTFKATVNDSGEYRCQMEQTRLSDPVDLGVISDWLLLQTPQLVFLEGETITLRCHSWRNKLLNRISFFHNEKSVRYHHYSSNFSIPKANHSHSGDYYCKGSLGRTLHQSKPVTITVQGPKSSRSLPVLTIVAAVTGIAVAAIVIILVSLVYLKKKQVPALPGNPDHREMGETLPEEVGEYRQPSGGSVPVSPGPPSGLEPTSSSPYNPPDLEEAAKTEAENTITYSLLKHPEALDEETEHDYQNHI
# T4: rat FcγRIIB (rat, UniProt A0A0G2K9R6 42-295)
# T4 construct: also called FcγRIIB in other species
# T4 sequence: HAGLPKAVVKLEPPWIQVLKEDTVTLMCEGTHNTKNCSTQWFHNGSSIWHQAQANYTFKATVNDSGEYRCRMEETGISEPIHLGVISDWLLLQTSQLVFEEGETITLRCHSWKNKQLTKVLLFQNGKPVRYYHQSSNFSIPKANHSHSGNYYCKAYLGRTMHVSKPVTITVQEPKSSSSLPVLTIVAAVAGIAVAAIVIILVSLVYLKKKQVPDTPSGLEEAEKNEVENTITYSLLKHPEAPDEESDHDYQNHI
# T5: cynomolgus monkey FcγRIIB (cynomolgus monkey, UniProt A0A140HDP4 43-312)
# T5 construct: whole, on cells; also called FcγRIIB in other species
# T5 sequence: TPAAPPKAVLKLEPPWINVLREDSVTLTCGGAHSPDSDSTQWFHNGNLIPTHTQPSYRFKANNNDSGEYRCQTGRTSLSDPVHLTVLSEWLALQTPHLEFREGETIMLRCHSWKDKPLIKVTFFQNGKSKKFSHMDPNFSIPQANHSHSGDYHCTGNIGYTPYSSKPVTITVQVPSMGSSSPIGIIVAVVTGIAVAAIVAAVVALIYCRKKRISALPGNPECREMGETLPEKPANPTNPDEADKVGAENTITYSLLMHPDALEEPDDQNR
# B1: 6G11 (antibody, human IgG1, V domains shown)
# VH: EVQLLESGGGLVQPGGSLRLSCAASGFTFSSYGMHWVRQAPGKGLEWMAVISYDGSNKYYADSVKGRFTISRDNSKNTLYLQMNSLRAEDTAVYYCARELYDAFDIWGQGTLVTVSS
# VL: QSVLTQPPSASGTPGQRVTISCTGSSSNIGAGYDVHWYQQLPGTAPKLLIYADDHRPSGVPDRFSGSKSGTSASLAISGLRSEDEADYYCASWDDSQRAVIFGGGTKLTVLG
# notes: Lead antagonistic hFcγRIIB mAb, human IgG1 (WT); Only VH/VL tied to the clone; also called Antibody clone: 6G11; WT 6G11
# Key:
# [1] = target: T1, Soluble hFcγRIIB (R & D Systems); test: SPR, mAb immobilised, soluble hFcγRIIB injected; column headed KD (1/s)
# Procedure: (§1) A BIAcore T100 analyzer (GE Healthcare, UK) was used to determine the binding affinity of the hFcγRIIB mAb, as described elsewhere.²⁵ mAb were immobilized onto a CM5 sensorchip (GE Healthcare, UK), using standard amine coupling according to the manufacturer's instructions. Soluble hFcγRIIB (0.16-100 nM; R & D Systems, UK) was injected for 5 minutes and dissociation monitored for 10 minutes. Background binding to the control flow cell was monitored and subtracted automatically. The KD values were calculated from the 1:1 binding model using the BIAcore T100 Evaluation software.
# human FcγRIIA on cells = target: T2, human FcγRIIA on cells; test: not specified (summary in the discussion)
# [2] = target: T1, Soluble hFcγRIIB (R & D Systems); test: SPR (Biacore T100), mAb immobilised on CM5, soluble hFcγRIIB injected, 1:1 model
# Procedure: as §1
# [3] = target: T1, Soluble hFcγRIIB (R & D Systems); test: SPR (Biacore T100), mAb immobilised on CM5, soluble hFcγRIIB injected, 1:1 model; column headed KA (1/MS)
# Procedure: as §1
# [4] = target: T1, Soluble hFcγRIIB (R & D Systems); test: SPR, mAb immobilised, soluble hFcγRIIB injected; column headed KA (1/MS)
# Procedure: as §1
# [5] = target: T1, Soluble hFcγRIIB (R & D Systems); test: SPR, mAb immobilised, soluble hFcγRIIB injected
# Procedure: as §1
# mouse FcγRIIB = target: T3, mouse FcγRIIB; test: IHC on frozen tissue sections
# rat FcγRIIB = target: T4, rat FcγRIIB; test: IHC on frozen tissue sections
# [6] = target: T5, cynomolgus monkey FcγRIIB; test: IHC on frozen tissue sections
# [7] = target: T1, Soluble hFcγRIIB (R & D Systems); test: SPR (Biacore T100), mAb immobilised on CM5, soluble hFcγRIIB injected, 1:1 model; column headed KD (1/s)
# Procedure: as §1
binder,measurement,setting,value
B1,koff,[1],0.182 s⁻¹
same,binding result,human FcγRIIA on cells,no binding
same,Kd,[2],26.4 nM
same,kon,[3],6.9e+06 M⁻¹ s⁻¹
same,kon,[4],6.9e+06 M⁻¹ s⁻¹
same,Kd,[5],26.4 nM
same,binding result,mouse FcγRIIB,no binding
same,binding result,rat FcγRIIB,no binding
same,binding result,[6],no binding
same,koff,[7],0.182 s⁻¹
